# Source: patent US11549115B2, “Compositions and methods for regulated gene expression” (YALE UNIVERSITY, priority 2017, dated 2023)
# Positions count from the first letter of the chain named.
# B1: P1: Constitutive promoter of Bacteroides 16S rDNA (BT_r09 P1) (nucleic acid)
# DNA: TTTTGCACCCGCTTTCCAAGAGAAGAAAGCCTTGTTAAATTGACTTAGTGTAAAAGCGCAGTACTGCTTGACCATAAGAACAAAAAAACTTCCGATAAAGTTTGGAAGATAAAGCTAAAAGTTCTTATCTTTGCAGTC
# modifications: Constitutive promoter (last nucleotide is +1 TSS)
# B2: P2: Constitutive promoter of Bacteroides 16S rDNA (nucleic acid)
# DNA: AAGAAAAGGCGTTTTGTTTTTCTTCTTTACCTTCTTTCCCTTTCGCTAAGAGAGTCTGAGAAACGATAGAAAAAGAAAAGCGAAAAAACTTCCGAAAACATTTGGTAGTTAAAATAAAACCTCTTACCTTTGCACCC
# modifications: P2 Constitutive promoter (last nucleotide is +1 TSS)
# notes: Constitutive promoter of Bacteroides 16S rDNA
# B3: ss-Bte1: Periplasmic localized T6SS effector from B. fragilis NCTC 9343 (protein)
# chain: MKKILSLLVMAIVAIQFSFAGGKEIEIKKLPEFEAMVNAGNTTYTGLVEGIGYVYWTTETLYFIRTNPEQLWAIPKYQQIPFPYFQRKDAIIETKTLHTLHVLSKDELLKLDYDAYYAFYGIVEEMLKFIHRADAIKSYCEIPLPIIKSKGALKGNDARNGILSLGSQINDQIGAPLDAANMLMDNKHIGKIGDGLSLISIIDEVGNGEYWSAAGDILLFAAGKTKLSPYMTVISLGTWMYETDLMQWRLACINYSDYKKTLIKYRELQKKFESGDKSVEEKMNECHKILNSHYIEMQKNLGNLGVKF
# modifications: Periplasmic-localized T6SS effector from B. fragilis NCTC 9343
# B4: P1TP: Synthetic aTC-inducible promoter (proximal tetO2) + RBS GH023 (nucleic acid)
# DNA: TTTTGCACCCGCTTTCCAAGAGAAGAAAGCCTTGTTAAATTGACTTAGTGTAAAAGCGCAGTACTGCTTGACCATAAGAACAAAAAAACTTCCGATAAAGTTTGGAAGATAAAGCTAAAAGTTCTTATCTTTGCAGTCTCCCTATCAGTGATAGAGACGAAATAAAGACATATAAAAGAAAAGACACCATG
# modifications: P1TPSynthetic aTC-inducible promoter (proximal tetO2)+RBS GH023
# B5: ss-Bfe1: Periplasmic localized T6SS effector from B. fragilis 638R (protein)
# chain: MKKILSLLVMAIVAIQFSFAGAYRNEYKTQSEFNVILERGDDYEGFVVGLGYTWMSSKVILPVNQNGWSPISRNVSVDESFHTIVSERKYDTSQYAYEKSLMQDPTKVSEKVRDLIVKNKGNNITEINLGQEKQYLPTDNSQISIVITDTGSRYEIVISATDNSNGKTYEAKYESLTDLVSAVRDSGSLPAVNKEGPNLEGLAGLGFGIAETAGNWAEKIMDNRGAYLPKQMRFSPKTLPPIIRLPLGNYQVPAKGMSRVRGVGKALGWAGMVLTGYQVVRDVQNGRFAVAGTRIAVAGLAYGVTFIPYVGWVLAIGIGVADYTWGDEFYDWIDNRASELEMWWDGVRLAL
# modifications: Periplasmic-localized T6SS effector from B. fragilis 638R
# B6: P1TDP^B40: Synthetic aTC-inducible promoter (distal and proximal tetO2) + RBS B40 (nucleic acid)
# DNA: TTTGCACCCGCTTTCCAAGAGAAGAAAGCCTTGTTAAATTGACTTAGTGTAAAAGCGCAGTACTGCTTGACCATAAGAACAAAAAAATCTCTATCACTGATAGGGATAAAGTTTGGAAGATAAAGCTAAAAGTTCTTATCTTTGCAGTCTCCCTATCAGTGATAGAGACGCATTTTAAAATAAAATAAATCATGTAGTTAATTAAACGAATCCATG
# modifications: P1TDP-B40 Synthetic aTC-inducible promoter (distal and promixal tetO2)+RBS B40
# B7: P1TDP^C56: Synthetic aTC-inducible promoter (distal and proximal tetO2) + RBS C56 (nucleic acid)
# DNA: B6 DNA with C191T, G194T, T195C, A196G, G197T, A201G
# modifications: P1TDP-C56 Synthetic aTC-inducible promoter (distal and promixal tetO2)+RBS C56
# B8: P1TDP^A21: Synthetic aTC-inducible promoter (distal and proximal tetO2) + RBS A21 (nucleic acid)
# DNA: B6 DNA with C191T, G194T, G197T, T198G, T199A, A200T
# modifications: P1TDP-A21 Synthetic aTC-inducible promoter (distal and promixal tetO2)+RBS A21
# B9: P1TD: Synthetic aTC-inducible promoter (distal tetO2) + RBS GH023 (nucleic acid)
# DNA: TTTGCACCCGCTTTCCAAGAGAAGAAAGCCTTGTTAAATTGACTTAGTGTAAAAGCGCAGTACTGCTTGACCATAAGAACAAAAAAATCTCTATCACTGATAGGGATAAAGTTTGGAAGATAAAGCTAAAAGTTCTTATCTTTGCAGTCCGAAATAAAGACATATAAAAGAAAAGACACCATG
# modifications: P1TD Synthetic aTC-inducible promoter (distal tetO2)+RBS GH023
# Experiments:
# sialidases = conditions: cited from earlier work
# B. thetaiotaomicron [1] = assay: Polymyxin B susceptibility (MIC, E-test strips); assay type: cell-based, Bacteroides thetaiotaomicron; conditions: for PMB resistance of B. thetaiotaomicron lpxF mutant expressing lpxF from the promoter: no TetR
# Procedure: Minimum inhibitory concentrations (MICs) were determined on solid medium using E-test strips (Biomerieux) as previously described (Cullen, T. W. et al., 2015, Science, 347:170-175), except that cultures were initially grown for 18 hours in liquid medium. Cultures were adjusted to OD600˜1.0 and 100 μL of cell suspension was then spread onto BHI-blood agar plates. Surface liquid was allowed to dry in a fume hood for 10 minutes, followed by application of the E-test strip to the agar surface.
# B. thetaiotaomicron [2] = conditions: cited from earlier work
# [3] = system: NanoLuc luciferase reporter in B. thetaiotaomicron; assay: NanoLuc luciferase assay from in vitro samples (promoter activity); assay type: cell-based, Bacteroides thetaiotaomicron
# Procedure: The NanoLuc luciferase assay was performed as described (Mimee, M. et al., 2015, Cell Syst., 1:62-71), with the following modifications. All strains were first grown for 18 hours in TYG medium or Gut Microbiota Medium and diluted 250-fold into fresh medium in appropriate conditions (with or without aTC). Cultures were grown to mid exponential phase (OD600 0.3-0.4) and colony forming units (CFU) were measured by dilution plating. 500 μL of the culture was centrifuged at 21,130×g for 3 minutes, resuspended in 50 μL 1× BugBuster (Novagen) in 1×PBS and lysed by one cycle of freeze-thaw and nutation at 26° C. for 10 minutes. Lysates were cleared of cellular debris by centrifugation at 21,130×g for 10 minutes at 4° C. 10 μL of the supernatant was mixed with an equal volume of NanoLuc Reaction Buffer using the Nano-Glo Luciferase Assay System (Promega) and incubated for 5 minutes at 26° C. to induce luminescence production. Relative Light Units (RLU) were measured using a fluorescence plate reader (BioTek Synergy H1) with an integration time of 1 second at a gain setting of 100. Luminescence values were normalized to colony forming units (CFUs) because experimental conditions (e.g., growth medium, antibiotics, aTC, heterologous gene expression) affect the correlation between CFUs and OD600 in Bacteroides.
# B. thetaiotaomicron [4] = assay: aTC-induced expression of periplasm-targeted T6SS effectors (viability, culture density); assay type: cell-based, Bacteroides thetaiotaomicron; conditions: under P1TDP in Bt::tetR, aTC added
# Source text: To direct Bte1 and Bfe1 to the periplasm upon expression in B. thetaiotaomicron, the genes encoding each effector were first PCR amplified from genomic DNA purified from B. fragilis NCTC 9343 and B. fragilis 638R, respectively, using the CTAB method. A periplasmic localization signal was searched for that would be cleaved after translocation to prevent steric hindrance of the effector. To identify proteins that encode N-terminal B. thetaiotaomicron periplasmic localization signals that are post-translationally cleaved after protein translocation, the proteome of the Bacteroides thetaiotaomicron VPI-5482 chromosome was searched for signal peptides (PTM/Processing; Molecule Processing, Signal Peptide) using UniProt (UniProt Consortium, 2015, Nucleic Acids Research, 43:D204-D212). To exclude membrane proteins that potentially encode an uncleaved signal peptide, the search was refined by an additional query for the term “periplasmic” under Protein name. To identify a short periplasmic signal, the maximum length for the signal peptide was set at 20 amino acids. […] Therefore, the B. fragilis effectors were fused at the 5′ end (minus the ATG start codon) to the first 63 base pairs (encoding the first 21 amino acids) of the BT4676 open reading frame (see Table 2 for sequence) in order to localize them to the periplasm after expression in B. thetaiotaomicron.
molecule,measurement,setting,value
"CC(=O)N[C@H]1[C@H]([C@H](O)[C@H](O)CO)O[C@@](Oc2ccc([N+](=O)[O-])cc2)(C(=O)O)C[C@@H]1O [pNP-SA, 2-O-(p-Nitrophenyl)-t-D-N-acetylneuraminic acid]",Km,sialidases,110 µM
polymixin B [PMB],PMB MIC,"B. thetaiotaomicron [1]; Bt::tetR lpxF carrying P1TDP-lpxF fusion, TetR repressed, no aTC",< 0.064 µg/mL
same,reduction of PMB MIC by TetR repression of P1TDP-lpxF,"B. thetaiotaomicron [1]; Bt::tetR lpxF, no aTC","over 10,000 fold"
same,PMB MIC,B. thetaiotaomicron [1]; wildtype B. thetaiotaomicron,> 1024 µg/mL
same,reduction of PMB resistance by deletion of lpxF,B. thetaiotaomicron [2],four orders of magnitude
B1,effect of TetR on promoter activity,"[3]; Bt::tetR, no aTC",no effect
same,PMB resistance of B. thetaiotaomicron lpxF mutant expressing lpxF from the promoter,B. thetaiotaomicron [1],increases PMB resistance to wildtype levels
B2,PMB resistance of B. thetaiotaomicron lpxF mutant expressing lpxF from the promoter,B. thetaiotaomicron [1],increases PMB resistance to wildtype levels
B3,toxicity on expression in B. thetaiotaomicron,B. thetaiotaomicron [4],highly toxic
B4,PMB resistance of B. thetaiotaomicron lpxF mutant expressing lpxF from the promoter,B. thetaiotaomicron [1],increases PMB resistance to wildtype levels
B5,toxicity on expression in B. thetaiotaomicron,B. thetaiotaomicron [4],highly toxic
B6,increase of dynamic response to aTC over P1TDP^GH023,[3]; Bt::tetR,3.3 fold
same,reporter expression relative to background in uninduced state,"[3]; Bt::tetR (TetR present), no aTC",1.4 fold
same,induction of reporter activity (luminescence) in response to aTC,"[3]; Bt::tetR, aTC 100 ng/mL","9,100 fold"
B7,luminescence lower than the weakest native promoter tested,"[3]; OFF state, 18 native B. thetaiotaomicron promoters",6.7 fold
B8,luminescence higher than the strongest native promoter tested,"[3]; ON state, 18 native B. thetaiotaomicron promoters",14 fold
B9,PMB resistance of B. thetaiotaomicron lpxF mutant expressing lpxF from the promoter,B. thetaiotaomicron [1],increases PMB resistance to wildtype levels
